Numbering of substitutions follows the chain as printed. In names and notes the source's numbering stands.
T1: huTfR with mouse protease-like domain (human/mouse chimera)
T1 construct: His tag added; also called chimeric protein of human TfR extracellular domain with mouse protease-like domain
T1 chain: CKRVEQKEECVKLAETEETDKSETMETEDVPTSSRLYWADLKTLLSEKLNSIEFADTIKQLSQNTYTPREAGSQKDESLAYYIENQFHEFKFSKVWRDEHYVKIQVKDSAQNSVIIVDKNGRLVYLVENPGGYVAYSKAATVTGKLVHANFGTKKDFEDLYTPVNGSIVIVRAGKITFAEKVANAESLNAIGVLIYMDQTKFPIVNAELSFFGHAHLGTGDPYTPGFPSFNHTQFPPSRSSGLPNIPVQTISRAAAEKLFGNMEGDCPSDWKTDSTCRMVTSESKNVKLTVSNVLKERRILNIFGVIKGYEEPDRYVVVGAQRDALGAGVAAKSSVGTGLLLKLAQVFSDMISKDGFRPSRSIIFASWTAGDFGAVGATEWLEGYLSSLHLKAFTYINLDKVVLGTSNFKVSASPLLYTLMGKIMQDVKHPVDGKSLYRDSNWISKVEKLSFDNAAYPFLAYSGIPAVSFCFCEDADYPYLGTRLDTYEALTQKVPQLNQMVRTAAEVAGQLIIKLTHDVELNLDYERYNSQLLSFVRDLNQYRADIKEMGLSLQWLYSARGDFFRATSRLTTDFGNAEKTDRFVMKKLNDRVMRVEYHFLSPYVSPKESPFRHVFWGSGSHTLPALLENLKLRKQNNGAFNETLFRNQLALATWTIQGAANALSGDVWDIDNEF

T2: monkey TfR on CHO cells (monkey)
T2 construct: also called monkey TfR/CHO cells
T2 chain: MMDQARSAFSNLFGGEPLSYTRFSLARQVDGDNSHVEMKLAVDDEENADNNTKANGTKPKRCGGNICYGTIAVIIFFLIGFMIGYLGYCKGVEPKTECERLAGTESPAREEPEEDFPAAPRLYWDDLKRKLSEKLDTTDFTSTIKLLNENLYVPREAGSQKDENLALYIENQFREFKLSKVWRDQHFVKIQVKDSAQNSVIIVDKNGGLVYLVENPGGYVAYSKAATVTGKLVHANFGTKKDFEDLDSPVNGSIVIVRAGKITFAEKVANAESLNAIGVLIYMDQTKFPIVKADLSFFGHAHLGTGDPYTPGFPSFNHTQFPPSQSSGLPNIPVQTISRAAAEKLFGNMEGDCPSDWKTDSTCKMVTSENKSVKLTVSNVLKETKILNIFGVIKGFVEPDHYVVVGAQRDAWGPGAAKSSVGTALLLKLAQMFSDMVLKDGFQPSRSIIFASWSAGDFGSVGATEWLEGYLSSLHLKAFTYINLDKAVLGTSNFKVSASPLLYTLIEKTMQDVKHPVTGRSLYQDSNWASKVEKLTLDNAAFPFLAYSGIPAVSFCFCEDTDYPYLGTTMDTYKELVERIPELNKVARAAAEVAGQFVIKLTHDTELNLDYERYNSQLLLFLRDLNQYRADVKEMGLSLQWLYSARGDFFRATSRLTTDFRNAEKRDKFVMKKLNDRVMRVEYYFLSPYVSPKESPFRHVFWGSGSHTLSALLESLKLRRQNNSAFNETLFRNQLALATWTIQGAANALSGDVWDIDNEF

B1: R327 (antibody, V domains shown)
VH: EVQLVETGGGLVQPGGSLRLSCAASGFSFDKYTMNWVRQAPGKGLEWVSVISNGGVSTDYADSVKGRFTVSRDNSKNTLYLQMNSLRAEDMATYYCARASQPWLYRTGADVWGQGTMVTVSS
VL: not shown
notes: also called anti-TfR antibody R327
B2: TfR1071 (antibody, V domains shown)
VH: B1 VH with E1Y, T7S, M117L
VL: not shown
notes: also called anti-TfR antibody TfR1071
B3: PSM4072 (antibody, V domains shown)
VH: EVQLVETGGGLVQPGGSLRLSCTASGFTFESHAMYWVRQAPGKGLEWVSGISNGGSSTEYADSVRGRFTISRDNSKNTVYLQMNSLRAEDTAVYYCARPRSPYLFYDAAGVWGQGTLVTVSS
VL: not shown
notes: as IgG it has the constant region of human IgG4PE or IgG4PE R409K; also called anti-TfR antibody PSM4072
B4: cyno163 (antibody, V domains shown)
VH: B3 VH with T7S, T23A, E30S, S31T, H32Y, Y35S, L117M
VL: not shown
notes: as IgG it has the constant region of human IgG4PE or IgG4PE R409K; also called anti-TfR antibody cyno163
B5: TfR1007 (antibody, V domains shown)
VH: EVQLVESGGGLVQPGGSLSLSCAASGFSFKGYSMSWVRQAPGKGLEWVSSLSNGGGSSYYADSVKGRFTISRDNSKNTLYLQMNSLRAEDTAVYYCAKTLGAYYIKSAMDVWGQGTTVTVSS
VL: not shown
notes: also called anti-TfR antibody TfR1007

Assays:
[1] = biological target: T3, mouse TfR on CHO cells (mouse, UniProt Q62351 1-763); assay: flow cytometry on mouse TfR/CHO cells
T3 construct: also called mouse TfR/CHO
Method: Subsequently, an epitope analysis for various types of TfR antibodies was carried out.

[2] = biological target: T1, huTfR with mouse protease-like domain; assay: ELISA on immobilized chimeric TfR; grade = binding relative to His-huTfR (++ 0.5 or more, + 0.2 to less than 0.5);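 also: Anti-TfR antibodies incubated 1 h at room temperature on plate-coated antigen, bound antibody detected via HRP-labelled anti-human IgG Fc with TMB substrate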
Method: ELISA was carried out by the following method. To a 96-well immunoplate (NUNC, Inc.) on which an antigen protein was immobilized, 1% (w/v) BSA-PBS(−) pH 7.0 without KCl (hereinafter referred to as blocking solution, Nacalai Tesque, Inc.) was added to perform blocking at room temperature, and thereafter, the anti-TfR antibody diluted with the same solution was added thereto and a reaction was allowed to proceed at room temperature for 1 hour. Thereafter, washing was performed with 0.05% (w/v)-tPBS (1×) without KCl (pH 7.2) (hereinafter referred to as washing solution, Nacalai Tesque, Inc.), Anti-Human IgG (Fc) Goat IgG Fab″-HRP (IBL, Inc.) diluted with the blocking solution was added thereto, and a reaction was allowed to proceed at room temperature for 1 hour. Thereafter, washing was performed with the washing solution, and 1-Step (registered trademark) Ultra TMB-ELISA Substrate Solution (Thermo, Inc.) was added thereto, and a reaction was allowed to proceed at room temperature. The coloring reaction was stopped by adding a 5 N HCl solution, and an absorbance at a wavelength of 450 nm (reference wavelength: 570 nm) was measured using a plate reader (EPOCH 2: BioTek Instruments, Inc.).
Further, a value obtained by subtracting the absorbance at the reference wavelength of 570 nm from the absorbance at a wavelength of 450 nm was regarded as the binding activity to any of various types of antigen proteins, and a case where a value obtained by dividing the binding activity to any of various types of chimeric TfR by the binding activity to His-huTfR was 0.5 or more was denoted by ++, a case where the value was 0.2 or more and less than 0.5 was denoted by +, and a case where the value was less than 0.2 was denoted by −.

[3] = biological target: T4, human TfR on cells (human, UniProt P02786 1-760); assay: flow cytometry of monoclonal phage (scFv) on human TfR/CHO cells
T4 construct: also called human TfR/CHO; human TfFR/CHO cells
Method: (§1) After the reaction was allowed to proceed under 4° C. for 30 minutes, each well was washed 3 times with PBS-T.

[4] = biological target: T2, monkey TfR on CHO cells; assay: flow cytometry of monoclonal phage (scFv) on monkey TfR/CHO cells
Method: as §1

Row | Binder | binding result [1] | ratio of ELISA binding activity (A450-A570) to chimeric TfR over that to His-huTfR [2] | binding result [3] | binding result [4]
1 | B1 | no binding | ≥ 0.5 ratio |  | 
2 | B2 | no binding | ≥ 0.5 ratio |  | 
3 | B3 |  |  | binds | binds
4 | B4 |  |  | binds | binds
5 | B5 |  | ≥ 0.5 ratio |  | 

From patent US20220017635A1 (Kyowa Kirin, published 2022)
